Target: gastrin-releasing peptide receptor (human) (UniProt P30550)
Sequence (P30550 whole entry): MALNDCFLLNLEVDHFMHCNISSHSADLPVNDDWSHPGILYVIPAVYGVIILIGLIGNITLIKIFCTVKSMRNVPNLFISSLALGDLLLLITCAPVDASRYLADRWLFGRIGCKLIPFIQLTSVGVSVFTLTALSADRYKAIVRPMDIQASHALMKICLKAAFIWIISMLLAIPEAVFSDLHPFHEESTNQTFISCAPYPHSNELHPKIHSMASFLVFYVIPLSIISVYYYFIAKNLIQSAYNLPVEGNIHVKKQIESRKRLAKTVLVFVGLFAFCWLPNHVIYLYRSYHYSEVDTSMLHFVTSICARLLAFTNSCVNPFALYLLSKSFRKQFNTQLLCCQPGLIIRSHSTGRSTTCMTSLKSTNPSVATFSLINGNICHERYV

In the case of VPLPAGGGTVLTKMYPRGNHWAVGHLM [gastrin-releasing peptide], the EC50 of NFAT-luciferase reporter activation in CHO cells expressing hGRPR is reported as 0.12 nM.
